The values below come from publication PMC4180972.

For this test, the target named is Flag-TIN2 (human) (UniProt Q9BSI4). In words: co-IP.
Sequence of UniProt Q9BSI4 (Q9BSI4 whole entry): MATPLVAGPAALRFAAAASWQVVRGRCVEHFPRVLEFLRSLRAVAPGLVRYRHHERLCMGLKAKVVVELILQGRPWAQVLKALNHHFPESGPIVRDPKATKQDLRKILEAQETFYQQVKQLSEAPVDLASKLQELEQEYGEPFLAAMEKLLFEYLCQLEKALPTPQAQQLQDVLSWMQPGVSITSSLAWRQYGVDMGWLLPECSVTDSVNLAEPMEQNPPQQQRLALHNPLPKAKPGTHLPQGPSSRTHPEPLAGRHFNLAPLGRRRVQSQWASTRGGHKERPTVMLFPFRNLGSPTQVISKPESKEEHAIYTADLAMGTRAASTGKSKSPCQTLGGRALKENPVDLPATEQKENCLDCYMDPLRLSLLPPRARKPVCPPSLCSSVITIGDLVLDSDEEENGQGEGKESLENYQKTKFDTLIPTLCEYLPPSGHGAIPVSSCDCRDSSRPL

For the substance “Flag-tagged TPP1-P491T (from UniProt Q96AP0-3 1-458) (natural protein)”, the fold reduction in TIN2 association against wild-type TPP1 was determined as 2 fold.
